Reference: article PMC9088798, “An Approach to Derive Functional Peptide Inhibitors of Transcription Factor Activity” (JACS Au, 2022)

Experiments:
[1] = target: cJun bZIP domain (UniProt P05412)
[2] = target: cJun bZIP domain (UniProt P05412); remark: listed apart in the source
[3] = target: cJun bZIP domain (UniProt P05412); remark: listed apart in the source
[4] = target: cJun bZIP domain (UniProt P05412); test: ITC; antagonist peptide injected into cJun; single-site binding model
[5] = target: cJun bZIP domain (UniProt P05412); test: circular dichroism thermal denaturation; loss of CD signal at 222 nm with temperature; total peptide 10 μM, equimolar components
[6] = target: cJun bZIP domain (UniProt P05412); test: circular dichroism spectra; CD spectra at 20 °C; heterodimeric sample compared with the average of the component spectra; total peptide 10 μM, equimolar components

cJun bZIP domain, sequence (P05412 252-315): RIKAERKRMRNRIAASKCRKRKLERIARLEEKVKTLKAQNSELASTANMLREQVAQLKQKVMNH

A-FosW (designed binder)
TBS assay in E. coli: colony numbers relative to TRE-mDHFR only (removal of the cJun transcriptional block) [1]: 60% | IC50 of reversal of the TRE DNA CD peak shift at ~281 nm (cJun 20 μM, TRE DNA 5 μM); blocks cJun binding to TRE DNA [2]: 16 µM | IC50 of restoration of the free TRE DNA band in EMSA (cJun bZIP 20 μM, TRE DNA 2 μM); blocks cJun binding to TRE DNA [3]: 12.1 µM | Kd [4]: 0.0883 µM | dH [4]: -153 kJ/mol | stoichiometry N [4]: 1.04 | Tm of the heterodimer [5]: 69.9 °C | ΔTm of the heterodimer against the average of the component denaturation profiles [5]: 27.5 °C | increase in α-helical content over the average of the component spectra [6]: 39%

FosW (designed binder)
IC50 of reversal of the TRE DNA CD peak shift at ~281 nm; blocks cJun binding to TRE DNA [2]: 120 µM | Tm of the heterodimer [5]: 54 °C
